Earlier results, collected in paper PMC10229114.

Assays:
SDF-1α (Homo sapiens) = SDF-1α (Homo sapiens) (UniProt P48061)
SLy1 SAM (Homo sapiens) = SLy1 SAM (Homo sapiens) (UniProt O75995)

Sequence of SDF-1α (P48061 24-88): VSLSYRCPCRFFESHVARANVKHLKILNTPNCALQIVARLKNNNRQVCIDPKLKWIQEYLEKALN
Sequence of SLy1 SAM (O75995 252-316): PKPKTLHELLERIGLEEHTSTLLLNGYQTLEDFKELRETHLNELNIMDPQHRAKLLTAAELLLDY

| Kd (SDF-1α (Homo sapiens)) | Kd (SLy1 SAM (Homo sapiens)) | Substance |
| --- | --- | --- |
| 150 µM |  | SDF-1α (from UniProt P48061) |
|  | 117 µM | SLy1 SAM (from UniProt O75995) |
